{"source": "paper PMC10117238", "about": "“Molecular mechanism underlying the increased risk of colorectal cancer metastasis caused by single nucleotide polymorphisms in LI-cadherin gene” (Scientific Reports, 2023)", "molecules": {"B1": {"name": "LI-cadherin EC1-4K115E (domain or fragment, human)", "chain": "QEGKFSGPLKPMTFSIYEGQEPSQIIFQFKANPPAVTFELTGETDNIFVIEREGLLYYNRALDRETRSTHNLQVAALDANGIIVEGPVPITIEVKDINDNRPTFLQSKYEGSVRQNSRPGKPFLYVNATDLDDPATPNGQLYYQIVIQLPMINNVMYFQINNKTGAISLTREGSQELNPAKNPSYNLVISVKDMGGQSENSFSDTTSVDIIVTENIWKAPKPVEMVENSTDPHPIKITQVRWNDPGAQYSLVDKEKLPRFPFSIDQEGDIYVTQPLDREEKDAYVFYAVAKDEYGKPLSYPLEIHVKVKDINDNPPTCPSPVTVFEVQENERLGNSIGTLTAHDRDEENTANSFLNYRIVEQTPKLPMDGLFLIQTYAGMLQLAKQSLKKQDTPQYNLTIEVSDKDFKTLCFVQINVID", "notes": "Liver Intestine-cadherin (LI-cadherin, CDH17), human; the first four N-terminal extracellular cadherin repeats EC1-4, with the SNP change Lys115 to Glu (c.343A>G); Made in mammalian cells, N-glycosylated; K115E is a SNP variant found in patients, made here by site-directed mutagenesis; also called K115E of EC1-4; source: Expi293F, transfected (pcDNA3.4), purified from the supernatant (Ni-NTA, SEC)"}, "B2": {"name": "LI-cadherin EC1-2K115E (domain or fragment)", "chain": "QEGKFSGPLKPMTFSIYEGQEPSQIIFQFKANPPAVTFELTGETDNIFVIEREGLLYYNRALDRETRSTHNLQVAALDANGIIVEGPVPITIEVKDINDNRPTFLQSKYEGSVRQNSRPGKPFLYVNATDLDDPATPNGQLYYQIVIQLPMINNVMYFQINNKTGAISLTREGSQELNPAKNPSYNLVISVKDMGGQSENSFSDTTSVDIIVTENIWKAPKP", "modifications": "N-glycosylated (Expi293F expression, N-glycans on EC2); Ca2+-bound (3 mM CaCl2). Limits by convention: mature N-terminus Gln23 (as in 7CYM) to end of UniProt Cadherin 2 domain (244). C-terminal …"}}, "key": {"[1]": {"target": "LI-cadherin EC1-2 (Homo sapiens) (UniProt Q12864)", "assay": "SV-AUC", "conditions": "cited from earlier work"}, "[2]": {"target": "LI-cadherin EC1-4 (Homo sapiens) (UniProt Q12864)", "assay": "SV-AUC", "conditions": "cited from earlier work"}, "[3]": {"target": "the molecule itself", "assay": "AUC; sedimentation velocity (SV-AUC), 20 °C, 42,000 rpm, UV detection; 1-120 µM EC1-4K115E or 1-60 µM EC1-2K115E; buffer A (10 mM HEPES-NaOH pH 7.5, 150 mM NaCl, 3 mM CaCl2); homodimer to monomers"}, "[4]": {"target": "T1, LI-cadherin EC1-2K115E (human)", "T1 chain": "B2 chain", "assay": "AUC; sedimentation velocity (SV-AUC), 20 °C, 42,000 rpm, UV detection; 1-120 µM EC1-4K115E or 1-60 µM EC1-2K115E; buffer A (10 mM HEPES-NaOH pH 7.5, 150 mM NaCl, 3 mM CaCl2); homodimer to monomers", "conditions": "both partners purified"}}, "data": [{"molecule": "LI-cadherin EC1-2 (from UniProt Q12864)", "values": [{"measurement": "Kd", "setting": "[1]", "result": 75, "unit": "µM"}]}, {"molecule": "LI-cadherin EC1-4 (from UniProt Q12864)", "values": [{"measurement": "Kd", "setting": "[2]", "result": 39.8, "unit": "µM"}]}, {"molecule": "B1", "values": [{"measurement": "Kd", "setting": "[3]", "result": 51.6, "unit": "µM"}, {"measurement": "stoichiometry N", "setting": "[3]", "result": 2}]}, {"molecule": "B2", "values": [{"measurement": "Kd", "setting": "[4]", "result": 343, "unit": "µM"}, {"measurement": "stoichiometry N", "setting": "[4]", "result": 2}]}]}
